Results as given in PMC4176348, “Structure analysis of free and bound states of an RNA aptamer against ribosomal protein S8 from Bacillus anthracis”.

Assays:
[1] = molecular target: ribosomal protein S8 (B. anthracis) (Bacillus anthracis, UniProt Q81VR6 1-132); assay: fluorescence anisotropy; 10 mM Mg acetate; settings: protein: recombinant; tags: N-terminal 6xHis (pET28b NheI-XhoI); label: 5'-fluorescein; hairpin, asymmetric internal loop
[2] = molecular target: ribosomal protein S8 (E. coli) (Escherichia coli, UniProt P0A7W7 1-130); assay: fluorescence anisotropy; 10 mM Mg acetate; settings: protein: recombinant, tags: N-terminal 6xHis (pET28b NheI-XhoI), label: 5'-fluorescein, hairpin
[3] = molecular target: T1, ribosomal protein S8 (B. anthracis) (Bacillus anthracis, UniProt Q81VR6 1-132); assay: 1:1 complex; settings: protein: recombinant; tags: N-terminal 6xHis (pET28b NheI-XhoI)
[4] = molecular target: T1, ribosomal protein S8 (B. anthracis); assay: fluorescence anisotropy; 10 mM Mg acetate; settings: protein: recombinant; tags: N-terminal 6xHis (pET28b NheI-XhoI); label: 5'-fluorescein

B1: helix 21 16S rRNA S8 site, fluorescein hairpin (structured_RNA)
RNA: CGCUGGCGGGAUUAAGUCGACUUCGGUCGAAACUGGUCCCGGCAGCG
Kd [1]: 180 ± 60 nM | Kd ([2]; asymmetric internal loop): 28 ± 7 nM

B2: RNA-2 aptamer (crystal) (structured_RNA)
RNA: GGGAUGCUCAGUGAUCCUUCGGGAUAUCAGGGCAUCCC
binding result [3]: binds

B3: S8 RNA aptamer, fluorescein hairpin (structured_RNA)
RNA: CGCUGGCGGGUCAGUGAUCACUUCGGUGAUAUCAGACCCGGCAGCG
Kd ([2]; symmetric internal loop): 19 ± 4 nM | Kd [4]: 110 ± 30 nM
